Substitutions are numbered along the chain they refer to. Names may count otherwise.
B1: C2691 (antibody, V domains shown)
VH: QVQLQQSGPELVRPGESVKISCKGSGYTFTDYAMHWVKQSHAKSLEWIGIISFYYDNTKYNQNFKGKATMTVDKSSSTAYMELARLTSEDSAIYFCASQGIHYYGSFAYWGQGTLVTVSA
VL: DIVMTQSQKFMSTSVGDRVSVSCKASQNVGTNLGWYQQKPGQSPKALIYSASYRYSGVPDRFTGSGSGTDFTLTISNVQSEDLAEYFCQQYNSSPLTFGAGTKLELK
notes: also called lineage HV1-67/KV6-15 antibody C2691
B2: Y111A (antibody, V domains shown)
VH: B1 VH with Y103A
VL: B1 VL
notes: member of the group m29; also called C2691 Y111A; C2691 CDR3 alanine scanning mutant
B3: Y112A (antibody, V domains shown)
VH: B1 VH with Y104A
VL: B1 VL
notes: member of the group m29; also called C2691 Y112A; C2691 CDR3 alanine scanning mutant
B4: I109A (antibody, V domains shown)
VH: B1 VH with I101A
VL: B1 VL
notes: member of the group m29; also called C2691 I109A; C2691 CDR3 alanine scanning mutant
B5: Q107A (antibody, V domains shown)
VH: B1 VH with Q99A
VL: B1 VL
notes: member of the group m29; also called C2691 Q107A; C2691 CDR3 alanine scanning mutant
B6: H110A (antibody, V domains shown)
VH: B1 VH with H102A
VL: B1 VL
notes: member of the group m29; also called C2691 H110A; C2691 CDR3 alanine scanning mutant

How the values were obtained:
[1] = molecular target: T1, CoV2_5P_FPKO1 (SARS-CoV-2, UniProt P0DTC2 14-1208); experiment: ELISA
T1 construct: also called 5P KO1

[2] = molecular target: T2, CoV2_5P_NonSFP (SARS-CoV-2, UniProt P0DTC2 14-1208); experiment: ELISA, AUC, on 5P spikes with swapped fusion peptides
T2 construct: also called scrambled fusion peptide spike

[3] = molecular target: T3, CoV2_5P prefusion-stabilized spike protein (SARS-CoV-2, UniProt P0DTC2 14-1208); experiment: ELISA, AUC ratio to wildtype C2691
T3 construct: also called 5P trimer; wildtype 5P

| Binder | binding result [1] | binding result [2] | binding result [3] |
| --- | --- | --- | --- |
| B1 | binds |  |  |
| B2 |  | no binding |  |
| B3 |  | no binding | binds |
| B4 |  | no binding | binds |
| B5 |  | no binding |  |
| B6 |  | no binding | binds |

Source: patent publication US20250134988A1 (WISTAR INSTITUTE OF ANATOMY AND BIOLOGY, published 2025)
